How the values were obtained:
[1] = target: La ribonucleoprotein domain family, member 1 (human) (UniProt Q6PKG0); assay: protein microarray; settings: 3'-biotin; Microarray: 20 mM Tris pH 7.5, 5 mM MgCl2, 100 mM KCl, 0.1% Tween-20, A/T-rich ON blocker mix; EMSA: 20 mM Tris-HCl pH 8, 100 mM KCl, 200 nM ON, 0-200 nM BRD3 …
[2] = target: T1, small trans-membrane and glycosylated protein (human) (UniProt O95332); assay: protein microarray; settings: 3'-biotin; Microarray: 20 mM Tris pH 7.5, 5 mM MgCl2, 100 mM KCl, 0.1% Tween-20, A/T-rich ON blocker mix; EMSA: 20 mM Tris-HCl pH 8, 100 mM KCl, 200 nM ON, 0-200 nM BRD3 …
T1 sequence: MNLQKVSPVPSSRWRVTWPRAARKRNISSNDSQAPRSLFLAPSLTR

Sequence | binding signal [1] | binding signal [2]
GGGAGGCTGAGGCAGG [G4-1 biotinylated (PQS2)] | 4.49 Z-score | 3.31 Z-score
GGGGACAGGGGTATGGGGAGGGG [G4-3 biotinylated (CtG)] | 4.71 Z-score | 4.59 Z-score
GGTGACAGGGGTATGGGGAGGGG [G4-2 biotinylated (Ct1)] | 5.37 Z-score | 5.81 Z-score
